The supplement of paper PMC10126150
± gives the standard deviation of the averaged measurements.

Each sequence was assayed on ATP (assay: switch fluorescence ratio, 500 uM ATP over buffer (Cy3 cluster intensity, sum of 5 cycles each) (fold (ratio)); higher = stronger signal-on switching upon ATP binding; sequences stand for … in TCGTCGGCAGCGTCAGATGTGTATAAGAGACAGTTTTTTTTTTTTTTTTTTTTTTTTT…TC). Details: aptamer strand: ATP DNA aptamer (quencher-CACCTGGGGGAGTATTGCGGAGGAAGG + anchor), 100 nM annealed; ATP concentration: 500 uM.
In short: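 Switching-strand clusters labelled with Cy3 on a modified Illumina MiSeq flow-cell were annealed to 100 nM quencher-labelled ATP aptamer, imaged in selection buffer, and re-imaged after 15 min with 500 uM ATP at 22 °C. This was done over five cycles with NaOH stripping and re-annealing in between. The fluorescence ratio is summed target-cycle over summed buffer-cycle Cy3 intensity per cluster, averaged per switch-domain sequence, excluding clusters outside 100-1000 RFU.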
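Also: ATP exposure 15 min at 22 °C before imaging.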

Point of comparison: TTTCCGCAGG, switch fluorescence ratio 1.24 ± 0.17. Against it:
- ATAAGATGCC — lower, 0.963 ± 0.014
- GGCCGTAGAA — lower, 0.985 ± 0.032
- CGCCCCTGGG — within error, 1.13 ± 0.18
- TCCTTAAAAA — within error, 1.1 ± 0.06
- AGGATCGATG — lower, 1 ± 0.05
- GGGGTACGCT — lower, 0.99523 ± 0.00067
- TTTTTTAGCT — lower, 1.01 ± 0.055
- TCAGGATGGA — lower, 1 ± 0.018
- TTAAGGGCAT — lower, 1 ± 0.015
- GGTGGTTATC — lower, 1.01 ± 0.021
- GCTGTTTTGG — lower, 0.965 ± 0.027
- TCTTAGTTAG — lower, 0.9878 ± 0.0059
- GGTATTTACA — lower, 1.034 ± 0.0033
- GAACCAGGGG — within error, 1.27 ± 0.088
- ATATTCCACA — lower, 0.9984 ± 0.0093
- TTCCTTAGCG — lower, 1.03 ± 0.015
- CGGATGATAG — lower, 1 ± 0.059
- GTTCATGCAG — lower, 0.993 ± 0.024
- GTGGGTTGGG — within error, 1.09 ± 0.058
- TTTAAATGGT — lower, 1 ± 0.027
- CGAAATCATC — lower, 1.063 ± 0.0053
- GGGATACTAG — lower, 1.01 ± 0.02
- TTCCGGTTGT — lower, 1.03 ± 0.011
- CGGGCGGCAG — lower, 1.04 ± 0.027
- ATGTTGATAC — within error, 1.07 ± 0.0013
- GGGGGACGGG — lower, 1.02 ± 0.029
- TGGCGTTTAC — within error, 1.46 ± 0.64
- AACGTTTGCG — lower, 0.986 ± 0.017
- GGGGGGAGTC — within error, 1.05 ± 0.028
- TTCTTGATAA — lower, 1.01 ± 0.013
- TTTGCTGCAG — lower, 1.003 ± 0.003
- TGGGGTTGAG — lower, 0.984 ± 0.019
- GGTGATATGT — lower, 0.997 ± 0.018
- TATATGGGGG — lower, 0.981 ± 0.026
- AGGGCAACTG — within error, 1.07 ± 0.079
- GGTCGCAGGG — lower, 1 ± 0.026
- TTGGTACTGC — lower, 1.03 ± 0.027
- ATTCTATCGT — lower, 1.01 ± 0.015
- CATTAGTCGT — lower, 0.996 ± 0.013
- GACAGGTATC — lower, 1.01 ± 0.057
- TGGCAATTAG — within error, 1.1 ± 0.074
- ATGGTATTTT — lower, 1.01 ± 0.013
- ACGGTCGTTA — lower, 0.975 ± 0.027
- GGGGGACAGC — lower, 0.992 ± 0.023
- CCTTGGAACG — lower, 1.03 ± 0.011
- CGTAGGGGTC — lower, 0.959 ± 0.042
- TTGGTTGTAG — lower, 1.01 ± 0.02
- TAAGGTGGGG — lower, 0.987 ± 0.021
- CTTTTTGCAT — lower, 1.02 ± 0.013
- CTCAATGACT — lower, 1.02 ± 0.016
- TCTATTTCGT — lower, 1.01 ± 0.032
- CCGCGCCGAT — within error, 1.37 ± 0.16
- AGCTCAGGGA — lower, 1.04 ± 0.027
- GGGATGTAAG — lower, 0.966 ± 0.027
- TCATCAGCAG — within error, 2.96 ± 1.7
- TTTTAAAGGC — lower, 1.02 ± 0.031
- GTGTGGATTC — lower, 0.998 ± 0.013
- AAGGGAGGGC — lower, 0.96 ± 0.032
- TTAGCATTAG — within error, 1.23 ± 0.04
- GAGGATGAGG — lower, 0.954 ± 0.0017
- AATTATATCA — lower, 1.01 ± 0.01
- ACGCAGTATA — lower, 1.05 ± 0.013
- TACGTGCTTG — lower, 0.989 ± 0.03
- ATTGATATCC — lower, 0.987 ± 0.043
- GCAGGGGGGC — lower, 1.03 ± 0.035
- ATTGGTGCGT — lower, 1.0357 ± 0.0007
- GTAGGGCGGG — lower, 0.979 ± 0.043
- ATATTATTAC — within error, 1.06 ± 0.016
- TTTAAAAAGT — lower, 1 ± 0.023
- TAAGATGTAA — lower, 1.03 ± 0.011
- TATTACAAT — within error, 1.03 ± 0.052
- AGAGGTTGCG — lower, 0.955 ± 0.073
- TTTAATCACC — lower, 1.02 ± 0.02
- TTCGGACTGC — within error, 1.06 ± 0.031
- TTCAGCTCTA — lower, 0.993 ± 0.028
- AAGGTTGGTT — lower, 0.983 ± 0.068
- GTCTGAGGGG — lower, 0.9965 ± 0.0061
- AAGATGTAGT — lower, 0.994 ± 0.017
- TTGGTGCGTT — lower, 0.992 ± 0.018
- TGTGGTTAGG — lower, 0.993 ± 0.035
- CAGGGGCGCA — within error, 1 ± 0.075
- AACTGTTCTG — lower, 1.01 ± 0.014
- TCCTACTGTT — lower, 0.9957 ± 0.0061
- GGTTTCCATT — lower, 1 ± 0.054
- GAGATAAGGG — lower, 0.961 ± 0.061
- TTTGGTCGGG — lower, 1.01 ± 0.03
- CGGTTAAAAT — lower, 0.989 ± 0.023
- GACGAAGCAT — higher, 5.33 ± 0.82
- CATTGAAATT — lower, 0.968 ± 0.032
- AATTGTTAGT — lower, 0.994 ± 0.03
- AAAGGATAAT — lower, 1.01 ± 0.0077
- ATACTGAGGC — lower, 0.999 ± 0.029
- TAAAAGACGG — within error, 1.08 ± 0.056
- TCAGACGTTC — within error, 1.07 ± 0.05
- GGTTCAGGTA — lower, 0.9876 ± 0.0062
- GGTTGAGGAG — within error, 1.04 ± 0.074
- TTCCCGAAGT — lower, 1.02 ± 0.04
- TTATTACGGG — lower, 1.01 ± 0.038
- GGATTTCTTA — lower, 1 ± 0.025
